Test [1] addresses rpos_ecoli rpoS (UniProt P13445).
The target in test [2] is rpod_ecoli rpoD (UniProt P00579).
Test [3] has as its target T1, ltact_bpt4 33 (UniProt P13338).
T1 sequence: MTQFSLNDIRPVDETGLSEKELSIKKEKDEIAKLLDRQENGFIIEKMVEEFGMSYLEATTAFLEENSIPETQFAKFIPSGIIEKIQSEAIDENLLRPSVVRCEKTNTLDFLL

Chain of rpod_ecoli rpoD (P00579 whole entry): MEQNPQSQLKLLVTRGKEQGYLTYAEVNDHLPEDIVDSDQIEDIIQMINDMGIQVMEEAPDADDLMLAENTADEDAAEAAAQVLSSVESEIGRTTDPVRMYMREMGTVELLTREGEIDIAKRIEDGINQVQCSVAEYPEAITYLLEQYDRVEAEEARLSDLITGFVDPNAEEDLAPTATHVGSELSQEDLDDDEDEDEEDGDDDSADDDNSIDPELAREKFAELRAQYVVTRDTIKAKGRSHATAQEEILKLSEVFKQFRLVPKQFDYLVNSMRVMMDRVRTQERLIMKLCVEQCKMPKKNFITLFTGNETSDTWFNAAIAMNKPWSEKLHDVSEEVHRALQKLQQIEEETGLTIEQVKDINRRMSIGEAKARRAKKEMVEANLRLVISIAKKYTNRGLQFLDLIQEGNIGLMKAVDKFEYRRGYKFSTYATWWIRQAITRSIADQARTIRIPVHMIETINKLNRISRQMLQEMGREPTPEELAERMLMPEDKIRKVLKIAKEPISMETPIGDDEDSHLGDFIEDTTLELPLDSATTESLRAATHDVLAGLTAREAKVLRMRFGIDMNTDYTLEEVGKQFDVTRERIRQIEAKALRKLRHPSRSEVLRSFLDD
Chain of rpos_ecoli rpoS (P13445 whole entry): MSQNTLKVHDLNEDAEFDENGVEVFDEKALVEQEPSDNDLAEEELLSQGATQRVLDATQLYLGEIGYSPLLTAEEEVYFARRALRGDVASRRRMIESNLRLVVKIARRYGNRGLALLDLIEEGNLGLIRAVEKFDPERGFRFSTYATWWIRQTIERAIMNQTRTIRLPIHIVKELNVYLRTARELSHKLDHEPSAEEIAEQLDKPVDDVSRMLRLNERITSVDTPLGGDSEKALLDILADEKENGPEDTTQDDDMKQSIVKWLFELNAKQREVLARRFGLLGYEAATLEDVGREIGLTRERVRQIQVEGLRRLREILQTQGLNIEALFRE

With “DNA-directed RNA polymerase subunit beta (Escherichia coli (strain K12)) (from UniProt P0A8V2) E898A”, the “effect of a mutation on the interaction” value in test [1] is “decreasing interaction strength”; in test [2], “disrupting interaction strength”; in test [3], “disrupting interaction strength”.
As for “DNA-directed RNA polymerase subunit beta (Escherichia coli (strain K12)) (from UniProt P0A8V2) E899A”, the “effect of a mutation on the interaction” value in test [2] is given as “decreasing interaction strength”; in test [3], “disrupting interaction strength”.
Turning to “DNA-directed RNA polymerase subunit beta (Escherichia coli (strain K12)) (from UniProt P0A8V2) F906A”, the “effect of a mutation on the interaction” value in test [1] is reported as “decreasing interaction strength”; in test [2] it was “disrupting interaction strength”; in test [3] it was “disrupting interaction strength”.
Take “DNA-directed RNA polymerase subunit beta (Escherichia coli (strain K12)) (from UniProt P0A8V2) I905A”: the “effect of a mutation on the interaction” value in test [1] is listed as “decreasing interaction strength”; in test [2] it was “disrupting interaction strength”; in test [3], “disrupting interaction strength”.
Turning to “DNA-directed RNA polymerase subunit beta (Escherichia coli (strain K12)) (from UniProt P0A8V2) K900A”, the “effect of a mutation on the interaction” value in test [2] and in test [3] was “disrupting interaction strength” throughout.
With “DNA-directed RNA polymerase subunit beta (Escherichia coli (strain K12)) (from UniProt P0A8V2) K900E”, the “effect of a mutation on the interaction” value in test [3] was “disrupting interaction strength”.
“DNA-directed RNA polymerase subunit beta (Escherichia coli (strain K12)) (from UniProt P0A8V2) L901A”: the “effect of a mutation on the interaction” value in test [1], in test [2] and in test [3] was “disrupting interaction strength” throughout.
Regarding “DNA-directed RNA polymerase subunit beta (Escherichia coli (strain K12)) (from UniProt P0A8V2) L902A”, the “effect of a mutation on the interaction” value in test [1] was “decreasing interaction strength”; in test [2] it was “disrupting interaction strength”; in test [3], “disrupting interaction strength”.
For “DNA-directed RNA polymerase subunit beta (Escherichia coli (strain K12)) (from UniProt P0A8V2) R903A”, the “effect of a mutation on the interaction” value is reported as “decreasing interaction strength” in test [1], “decreasing interaction strength” in test [2] and “disrupting interaction strength” in test [3].

(Values after IntAct's records for PubMed 22135460.)
